Test results: patent US20210309978A1, “POLYNUCLEOTIDE SEQUENCE ENCODING A LOCAL SOURCED NOVEL ESTERASE” (ISTANBUL TEKNIK UNIVERSITESI, priority 2018, published 2021)
Several values for one entry are separate records, joined by “and”; a condition that tells them apart may be missing. Equal values may be shown once.

How the values were obtained:
esterase enzyme [1] = assay: Effect of sodium chloride on enzyme stability (24 hours incubation); format: biochemical, microflora of Ac1göl (Aci Lake)
Description: (§1) 6. Standard activity test: Activity has been measured based on the pNP measurement that is obtained by the hydrolysis of the paranitfrophenol (pNP) esters by the enzyme (Winkler and Stuckmann, 1979). The final concentration of the enzyme and substrate have been 1 μM and 1 mM respectively and absorbance measurements have been taken at 410 nm. The activity has been calculated by means of the below formula and one unit of activity has been defined as the enzyme amount which produces 1 μmol product in 1 minute.
(§2) Activity (U/L)=[(ΔAbs/t)/(ε*d)]*106*Vt/Vs • ΔAbs=Absorbance change; t=time (minute); ε=extinction coefficient (M−1 cm−1); d=light path (cm); Vt=total reaction volume; Vs=enzyme volume used in reaction.
(§3) The effect of sodium chloride on the activity (5%, 10%, 15%, 20% and 25% NaCl) and the stability (10%, 15%, 20% and 25% NaCl) of the enzyme has been determined similarly. The enzyme has been incubated in a buffer solution comprising sodium chloride at the defined amounts for 24 hours during stability tests.

esterase enzyme [2] = assay: Effect of sodium chloride on enzyme activity; format: biochemical, microflora of Ac1göl (Aci Lake)
Description: as §1, §2, §3

[3] = format: biochemical, microflora of Ac1göl (Aci Lake)
Description: as §1, §2
(§4) The reaction has been carried out under different temperatures (5° C.-70° C.) in order to determine the optimum temperature in which the enzyme works efficiently, and the activity has been measured. In order to determine the thermal stability of the enzyme, the enzyme has been incubated for 20 minutes between 25° C.-80° C. temperature and the remaining activity has been measured according to standard tests.

[4] = format: biochemical, microflora of Ac1göl (Aci Lake); remark: listed apart in the source
Description: as §1, §2
(§5) 8. Measuring the activity and stability of the enzyme under different conditions: Reactions have been carried out in buffer solutions (50 mM citrate/phosphate buffer, pH 6; 50 mM Tris-HCl buffer, pH 7, 8 and 8.5; 50 mM glycine-NaOH buffer, pH 9, 9.5 and 10) having different pH values in order to determine the optimum pH value in which the enzyme works. Moreover, in order to measure the pH stability of the enzyme, the enzyme has been incubated for 24 hours before reaction in these buffer solutions and the activity value remaining at the end of the incubation has been calculated.

[5] = Effect of temperature on enzyme activity (standard pNP ester activity test); format: biochemical, microflora of Ac1göl (Aci Lake)
Description: as §1, §2, §4

[6] = Effect of pH on enzyme activity; format: biochemical, microflora of Ac1göl (Aci Lake)
Description: as §1, §2, §5

[Cl-].[Na+] [sodium chloride]
The effect of sodium chloride on stability, Activity (%) (esterase enzyme [1]; Concentration 10.0 %): 100 ± 4.8% | The effect of sodium chloride on stability, Activity (%) (esterase enzyme [1]; Concentration 15.0 %): 99 ± 1.8% | The effect of sodium chloride on stability, Activity (%) (esterase enzyme [1]; Concentration 20.0 %): 102.7 ± 1% | The effect of sodium chloride on stability, Activity (%) (esterase enzyme [1]; Concentration 25.0 %): 101.4 ± 4.5% | The effect of sodium chloride on activity, Activity (%) (esterase enzyme [2]; Concentration 1 %): 100 ± 1.9% | The effect of sodium chloride on activity, Activity (%) (esterase enzyme [2]; Concentration 5 %): 90.2 ± 2.1% | The effect of sodium chloride on activity, Activity (%) (esterase enzyme [2]; Concentration 10 %): 79.2 ± 5% | The effect of sodium chloride on activity, Activity (%) (esterase enzyme [2]; Concentration 15 %): 52 ± 5.3% | The effect of sodium chloride on activity, Activity (%) (esterase enzyme [2]; Concentration 20 %): 39.2 ± 6.3%

B1: enzyme: novel esterase (SEQ ID NO: 2, 260 amino acids) obtained by metagenomic method from the microflora of Ac1göl (protein)
chain: MTVDLNHLDTGGEGIPLVVIHGLLGSADNWRSHVKQWQQQCRVVAVDLRNHGRSPHADGMSYAAMAADLEALLDRLGIERAHLLGHSMGGKVAISVARLHPQRVASLIVADIAPQAYGHDHDAVFAGLRRVEQGQPGNRREADALLAEHVEERAVRLFLATNLERDDDGILRLRIGLDEIEGDYDAIMQAPAGEGSYDGPVLVLRGDRSPYVTDAMLPRLHQVLPQAQLVTLENAGHWLHAEQPEAFQAAVNDFLASLEA
modifications: Metagenomic Sequence
temperature up to which the enzyme maintained the stability [3]: up to 55 °C | pH up to which the enzyme maintained its stability [4]: ≤ 10 pH | temperature of best activity [5]: 30 °C | Effect of temperature on activity, Activity (%) ([5]; reaction at 5 ° C.): 47% and 46.6 ± 6.1% | Effect of temperature on activity, Activity (%) ([5]; reaction at 10 ° C.): 53.8 ± 7.4% | Effect of temperature on activity, Activity (%) ([5]; reaction at 15 ° C.): 63% and 63.1 ± 5.1% | Effect of temperature on activity, Activity (%) ([5]; reaction at 20 ° C.): 76.9 ± 4.4% | Effect of temperature on activity, Activity (%) ([5]; reaction at 25 ° C.): 93.1 ± 6.3% | Effect of temperature on activity, Activity (%) ([5]; reaction at 30 ° C.): 100 ± 4.8% | Effect of temperature on activity, Activity (%) ([5]; reaction at 35 ° C.): 94.4 ± 1.5% | Effect of temperature on activity, Activity (%) ([5]; reaction at 40 ° C.): 82.4 ± 2.8% | Effect of temperature on activity, Activity (%) ([5]; reaction at 45 ° C.): 22.5 ± 0.8% | Effect of temperature on activity, Activity (%) ([5]; reaction at 50 ° C.): 17.7 ± 0.3% | Effect of temperature on activity, Activity (%) ([5]; reaction at 55 ° C.): 14.4 ± 4.5% | Effect of temperature on activity, Activity (%) ([5]; reaction at 60 ° C.): 12.9 ± 2.9% | Effect of temperature on activity, Activity (%) ([5]; reaction at 65 ° C.): 11.1 ± 4.2% | Effect of temperature on activity, Activity (%) ([5]; reaction at 70 ° C.): 8.2 ± 0.8% | pH value at which the enzyme worked best [6]: 9 pH | The effect of pH on activity, Activity (%) ([6]; pH 6): 10.3 ± 4.1% | The effect of pH on activity, Activity (%) ([6]; pH 7): 68.8 ± 8.2% | The effect of pH on activity, Activity (%) ([6]; pH 8): 77.1 ± 6.8% | The effect of pH on activity, Activity (%) ([6]; pH 8.5): 84 ± 5.2% | The effect of pH on activity, Activity (%) ([6]; pH 9): 100 ± 1.3% | The effect of pH on activity, Activity (%) ([6]; pH 9.5): 84.9 ± 1.5% | The effect of pH on activity, Activity (%) ([6]; pH 10): 20 ± 8.1%
